Assay results taken from PMC4146490 (Nature communications, 2014).

B1: DAZ associated protein 1 (DAZAP1), full length, recombinant (natural protein, human, UniProt Q96EP5 1-407, looked up)
chain: MNNSGADEIGKLFVGGLDWSTTQETLRSYFSQYGEVVDCVIMKDKTTNQSRGFGFVKFKDPNCVGTVLASRPHTLDGRNIDPKPCTPRGMQPERTRPKEGWQKGPRSDNSKSNKIFVGGIPHNCGETELREYFKKFGVVTEVVMIYDAEKQRPRGFGFITFEDEQSVDQAVNMHFHDIMGKKVEVKRAEPRDSKSQAPGQPGASQWGSRVVPNAANGWAGQPPPTWQQGYGPQGMWVPAGQAIGGYGPPPAGRGAPPPPPPFTSYIVSTPPGGFPPPQGFPQGYGAPPQFSFGYGPPPPPPDQFAPPGVPPPPATPGAAPLAFPPPPSQAAPDMSKPPTAQPDFPYGQYAGYGQDLSGFGQGFSDPSQQPPSYGGPSVPGSGGPPAGGSGFGRGQNHNVQGFHPYRR
B2: hnRNP A0, full length, recombinant (natural protein, UniProt Q13151 1-305, looked up)
chain: MENSQLCKLFIGGLNVQTSESGLRGHFEAFGTLTDCVVVVNPQTKRSRCFGFVTYSNVEEADAAMAASPHAVDGNTVELKRAVSREDSARPGAHAKVKKLFVGGLKGDVAEGDLIEHFSQFGTVEKAEIIADKQSGKKRGFGFVYFQNHDAADKAAVVKFHPIQGHRVEVKKAVPKEDIYSGGGGGGSRSSRGGRGGRGRGGGRDQNGLSKGGGGGYNSYGGYGGGGGGGYNAYGGGGGGSSYGGSDYGNGFGGFGSYSQHQSSYGPMKSGGGGGGGGSSWGGRSNSGPYRGGYGGGGGYGGSSF

Assays:
[1] = target: B2; experiment: ITC
[2] = target: B1; experiment: ITC

Row | stoichiometry N [1] | binding result [2] | Binder
1 | 1 | – | B1
2 | – | binds | hnRNP A2, full length, recombinant (natural protein, UniProt P22626-2 1-341, looked up) MEREKEQFRKLFIGGLSFETTEESLRNYYEQWGKLTDCVVMRDPASKRSRGFGFVTFSSMAEVDAAMAARPHSIDGRVVEPKRAVAREESGKPGAHVTVKKLFVGGIKEDTEEHHLRDYFEEYGKIDTIEIITDRQSGKKRGFGFVTFDDHDPVDKIVLQKYHTINGHNAEVRKALSRQEMQEVQSSRSGRGGNFGFGDSRGGGGNFGPGPGSNFRGGSDGYGSGRGFGDGYNGYGGGPGGGNFGGSPGYGGGRGGYGGGGPGYGNQGGGYGGGYDNYGGGNYGSGNYNDFGNYNQQPSNYGPMKSGNFGGSRNMGGPYGGGNYGPGGSGGSGGYGGRSRY
3 | – | binds | B2
